Measurements as given in article PMC3039559, “A Blue Native-PAGE analysis of membrane protein complexes in Clostridium thermocellum” (BMC Microbiology, 2011).

B1: Ferritin and Dps (Cthe_0016) (natural protein, UniProt A3DBC9 1-159, looked up)
chain: MSKLYDNLNEQMNFELESAYIYATMSAYLDSLNMKGMTHFFDEQVKEEMEHAGKIKKFLQDTGYGIKYRPLNPGDGKFDSIEDVFKKALAHEKTVTSRINDLVKQAREEGDQRVLNLLAWFVDEQIEEENMFGVLVERLERINGHWNGLYILDKELGER
notes: ferritin (annotated Ferritin and Dps), Clostridium thermocellum ATCC 27405, locus Cthe_0016, 18.6 kDa; also called spots 6 and 7; source: endogenous, C. thermocellum membrane fraction solubilised with 1.0% DDM; copies: 24
B2: ABC transporter related protein (Cthe_3148) (natural protein, UniProt A3DK64 1-632, looked up)
chain: MENNVKKNKKSIVLRLFKDILEFYPVMLPVAIVCILFNATISSIPAVFMQNVIAIVENNWRTGDWNAVGGRILSLVAVLVAFYTLSILSGIAYNQMMAIITQGTLKKFRCKMFARMQTLPIKYVDTHNHGDIMSVYTNDIDTLRQMISQSFPQLLLSGITVLTVFSIMVYFCLWLTIIVLIGVIAMFFVTRRVGGGSAKYFIRQQKALGRVEGFIEEMMNGQKVIKVFCREEEVKKDFDKLNEALFDDARKANRYANILAPILNNIGNVLYVFVAITGGVLLVTNAPNVSLSGLSMGISIVVPFLNMTKQFVGNINQVSQQINAVIMGLAGAQRIYELIDEEPEQDDGYVTLVNVREENGQLIECEERTGIWAWKHPHSSDGSVTYTKLMGDVRLFNVDFEYEPGKSVLHDISLYAKPGQKVAFVGATGAGKTTITNLLNRFYDIADGKIRYDGININKIKKSDLRRAVGIVLQDTNLFTGTVMDNIRYGKLDATDEECIAAAKLAGADDFIRRLPDGYYTMLTENGANLSQGQRQLISIARVAVADPPVMILDEATSSIDTRTEAIVQRGMDALMEGRTVFVIAHRLSTVKNANVIIVLDHGRIIERGTHEELIAQKGQYYQLYTGAFELE
notes: ABC transporter related protein with fused ABC and IM domains, Clostridium thermocellum ATCC 27405, locus Cthe_3148, 70 kDa; also called ABC transporter with fused ABC and IM domains; Class 1 ABC transporter; source: endogenous, C. thermocellum membrane fraction solubilised with 1.0% DDM
B3: Ornithine carbamoyltransferase (Cthe_1869) (enzyme, UniProt A3DGL1 1-307, looked up)
chain: MEHLISLHDLTVEDFESIFKLAEKLKRQQKEGIPHHLLKGKTLGMIFTKSSTRTRVSFEVGMYQLGGYPLFLSANDIQLGRGETIYDTAQVLSRYVDGIMIRTFAQSDVEDLARYGNVPVINGLTDLMHPCQILADLFTIYEHKGTLKGLKLAYVGDGNNVANSLLHGCAKVGMDIAVASPKGYECDSRIVEEAKEDAKASGANILLTEDPEEAIKDADVVYTDTWVSMGQESEKEERIKVFMPYQVNNTLFSKAHEDAIFLHCLPAYRGYEVTEDVIDGSQSVIFDEAENRLHVQKAIMALLMGNK
notes: ornithine carbamoyltransferase, Clostridium thermocellum ATCC 27405, locus Cthe_1869, 34 kDa; also called OTCase; spot 27; source: endogenous, C. thermocellum membrane fraction solubilised with 1.0% DDM
B4: Polynucleotide phosphorylase/polyadenylase (Cthe_0418) (enzyme, UniProt A3DCH7 1-700, looked up)
chain: MYKTFSMELAGRTLTIETGKLAQLANGSVLVRYGDTVVLSTATASATPREGVDFFPLSVDYEERLYAVGKIPGGFIKREGKPSEKAILTARVIDRPLRPLFPKDLRNDVAIVNTVLSVDQDNSPELAALLGSSIAVSISDIPFNGPVGAVILGLIDGEVIINPTEKQKEISQMYVTLAGTRNKIVMIEAGANEVPDEVMLDAIKKGHEEIKKIVDFIDGIVKEVGKPKFEYESAEVPEEIFNAVREYAYDKMREAVLAVDKQVRDKNIDDLTKEITEHFAEVFPEMEPAIKEAIYKLEKKVVREYILEEGRRVDGRRLDEIRPLSAEVGLLPRVHGSGLFTRGQTQVLSSVTLGAMGDVQILDGIDTEETKRYMHHYNFPGFSVGEAKSSRGPGRREIGHGALAERALEPVIPSEEEFPYTIRVVSEVLMSNGSTSQGSVCGSTLALMDAGVPIKKPVAGISAGLVVDENNPDRFVTFMDIQGIEDFFGDMDFKVAGTKDGITAIQVDIKIDGLTEEIIKQAFELTRKGRLYIIDNVLLKAIPEPRKQMSKYAPKIISTTINPDKIREVIGPGGKMINKIIDETGVKIDINDDGRVYIFSSDIQAGKRARSMIEAIAKDIEPGQVFLGRVIRVTSFGAFVEFLPGKEGLVHISKLDKKRVERVEDIVRVGDQILVKVIEIDKQGRVNLSRKDAMEDEWDK
notes: polynucleotide phosphorylase/polyadenylase, Clostridium thermocellum ATCC 27405, locus Cthe_0418, 77 kDa; also called Polyribonucleotide phosphorylase; PNPase; source: endogenous, C. thermocellum membrane fraction solubilised with 1.0% DDM
B5: Carboxyl transferase (Cthe_0699) (enzyme, UniProt A3DDA5 1-516, looked up)
chain: MDKVDKIGLLREKLAQVEQGGGAEKIAKQHDAGKMTARERIQALFDENSFVEIDTFVETRSIDFDMQKKKVPGDGVVTGYGSIDGRLVFVAAQDFTVIGGSLGEMHAAKITKVMDMAMKMGAPFISINDSGGARIEEGIDALKGFGDIFYRNTLASGVIPQISVIMGPCAGGAVYSPAITDFIFMVDKTSQMFITGPQVIKSVTGEDVTFEKLGGAETHNSISGVAHFRSSSEKECIEQIKKLISYLPDNNLSDVPIVPTQDDINRITDNLVDIIPQDSNKPYDMMEIITSVVDNGDFFEIQKDFAKNIIIGFGRMNGGTVGIVANQPKVAAGVLDVNSSDKAARFVRFCDAFNIPIITFTDVPGYLPGVGQEHSGVIRHGAKLLYAFSEATVPKINVIVRKAYGGAYIAMNSKHLGADMVFAWPSAEIAVMGPEGAANIIFKKDIAAADDPMETRKRLIEEYREKFSNPYVAASRGYVDDVIDPATTRIRLISALEMLASKRENRPAKKHGNIPL
notes: carboxyl transferase with two carboxyl transferase domains, Clostridium thermocellum ATCC 27405, locus Cthe_0699, 56 kDa; also called spots 4 and 15; source: endogenous, C. thermocellum membrane fraction solubilised with 1.0% DDM

Biological target: the molecule itself
Assay: native gel or EMSA; two-dimensional blue native PAGE (4-15% gel) then SDS-PAGE of the membrane fraction solubilised at 4°C in 1.0% (w/v) DDM; about 40 μg protein; spots identified by MALDI-TOF/TOF; complex mass estimated from BN-PAGE markers

Point of comparison: B4, “stoichiometry N” value 2. Against it:
- B1 — higher, 24
- B2 — the same, 2
- B3 — higher, 3
- B5 — higher, 4
